Legend:
Assay in all cases: ITC; peptide (FEN1 800 uM, pol δ p66 550 uM, RNaseH2B 750 uM) with 33 to 38 uM individual PCNA (not trimeric rings); 25 °C
Settings in all cases: both partners purified
[1] = biological target: T1, Proliferating cell nuclear antigen, wild type (human, UniProt P12004 1-261)
T1 construct: PCNA, human; untagged, expressed from the pET3c vector; Homotrimeric ring; also called PCNA-WT; PCNA; source: E. coli BLR-DE3, purified (S and Q HiTrap columns, Sephacryl-200 gel filtration)
T1 sequence (P12004 whole entry): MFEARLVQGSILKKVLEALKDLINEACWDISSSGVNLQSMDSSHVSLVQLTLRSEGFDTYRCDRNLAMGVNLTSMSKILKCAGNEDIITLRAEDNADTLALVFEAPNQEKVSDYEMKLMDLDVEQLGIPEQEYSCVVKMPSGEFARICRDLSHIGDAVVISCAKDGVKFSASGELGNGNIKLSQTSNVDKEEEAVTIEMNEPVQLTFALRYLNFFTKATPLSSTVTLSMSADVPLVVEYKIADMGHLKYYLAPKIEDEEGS

[2] = biological target: T2, Proliferating cell nuclear antigen S228I variant (human, UniProt P12004 1-261, S228I)
T2 construct: PCNA, human, patient-derived variant p.Ser228Ile; expressed from the pET3c vector; Disease-associated natural allele (PARD); also called PCNA-S228I; source: E. coli BLR-DE3, purified (S and Q HiTrap columns, Sephacryl-200 gel filtration)
T2 sequence (P12004 whole entry S228I): as the sequence (P12004 whole entry) above, with S228I counted along it

[3] = biological target: T3, Proliferating cell nuclear antigen C148S variant (human, UniProt P12004 1-261, C148S)
T3 construct: PCNA, human, patient-derived variant p.Cys148Ser; untagged, made by site-directed mutagenesis of PCNA-WT in pET3c; Disease-associated natural allele (PARD); Homotrimeric ring; also called PCNA-C148S; C148S-PCNA; source: E. coli BLR-DE3, purified (S and Q HiTrap columns, Sephacryl-200 gel filtration)
T3 sequence (P12004 whole entry C148S): as the sequence (P12004 whole entry) above, with C148S counted along it

Kd [1] [µM]	Kd [2] [µM]	Kd [3] [µM]	Binder
3 ± 0.16	4 ± 0.14	2.8 ± 0.33	KANRQVSITGFFQRK (PIP-box peptide of the p66 subunit of DNA polymerase delta; also called pol δ p66; pol δ; source: synthetic peptide (21st Century Biochemicals)) [DNA polymerase delta p66 PIP-box peptide]
11 ± 2		11 ± 2	STQGRLDDFFKVTGSL (PIP-box peptide of Flap endonuclease 1 (FEN1); free C-terminus (-OH); source: synthetic peptide (21st Century Biochemicals)) [FEN1 PIP-box peptide]
9.7 ± 0.3		7.8 ± 0.01	DKSGMKSIDTFFGVKNKKKIGKV (PIP-box peptide of RNaseH2B; free C-terminus (-OH); printed with a blank after SID; source: synthetic peptide (21st Century Biochemicals)) [RNaseH2B PIP-box peptide]

Reference: paper PMC10165274 (The Journal of Biological Chemistry, 2023)
